In the supplement of paper PMC9732359:
± gives the uncertainty stated by the source.

Experiment: protein stability index of a GFP-peptide fusion (yeast GPS) (PSI 1-4); higher = more stable; sorted into four equal gates, so the index is relative within each strain
Outline: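 Mid-log yeast cultures in leucine-free medium, carrying a pooled plasmid library, were sorted into four equal gates by their GFP/Cherry fluorescence ratio. Each plasmid expressed Cherry along with GFP fused upstream of a tiled 17-residue yeast protein peptide. Plasmids recovered from each gate were PCR-amplified and Illumina-sequenced, with reads assigned to strains by barcodes. The protein stability index was obtained by summing each gate's read frequency weighted by its gate number.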

Sequence | protein stability index (doa10∆) | protein stability index (pdr5∆) | protein stability index (san1∆) | protein stability index (ubr1∆)
DTKNLYVIKALQSLTSK [RPS10A] | 1.75 ± 0.077 | 1.95 ± 0.077 | 1.3 ± 0.16 | 1.34 ± 0.078
SQVVWIRRLRVLRRLLA [RPL19A] | 1.22 ± 0.054 | 1.46 ± 0.049 | 1.44 ± 0.12 | 1.29 ± 0.053
TMQPPYIQERLKSLNDI [MED11] | 2.89 ± 0.086 | 2.86 ± 0.12 | 3.13 ± 0.068 | 2.82 ± 0.056
EKVTRYNRHKLQELIVN [RPO31] | 1.74 ± 0.046 | 1.44 ± 0.043 | 1.82 ± 0.058 | 1.44 ± 0.041
LRLFINEEGDWSCIVVE [ITC1] | 2.74 ± 0.088 | 2.62 ± 0.083 | 3.07 ± 0.083 | 3.19 ± 0.1
GDRGALARASGNYVIII [RPL2A] | 2.82 ± 0.11 | 2.81 ± 0.11 | 2.84 ± 0.11 | 2.75 ± 0.14
NSTSKNTLLQQQNYSKV [SWI1] | 2.33 ± 0.067 | 2.86 ± 0.12 | 2.08 ± 0.078 | 2.68 ± 0.06
SQDATKVDATPEESKPI [YLR335W/NUP2] | 2.87 ± 0.12 | 3.17 ± 0.089 | 2.81 ± 0.08 | 3.18 ± 0.06
VAKLANWFLEVYASGNP [YML031W/NDC1] | 2.1 ± 0.069 | 2.09 ± 0.049 | 1.89 ± 0.12 | 1.12 ± 0.055
KVTSYDITGDIRNEGSD [ISW2] | 3.15 ± 0.17 | 3.04 ± 0.21 | 3.21 ± 0.14 | 
DDRYGYQLYTSNPSGNY [PRE9] | 2.88 ± 0.073 | 2.97 ± 0.081 | 3.06 ± 0.065 | 3.1 ± 0.05
PNGEGSKTWETYEMRIH [RPS20] | 3.09 ± 0.091 | 3.35 ± 0.069 | 3.05 ± 0.095 | 3.33 ± 0.045
LCRQGHNMLNLLIHRKG [PRP8] | 2.33 ± 0.061 | 2.55 ± 0.068 | 2.31 ± 0.091 | 2.23 ± 0.041
STVSGELNDNPAWFNNP [YMR153W/NUP53] | 3.36 ± 0.086 | 3.47 ± 0.056 | 3.29 ± 0.044 | 3.35 ± 0.049
PQTTQMFQSQSQLQPQP [YDL088C/ASM4] | 2.7 ± 0.052 | 2.5 ± 0.039 | 2.65 ± 0.046 | 2.46 ± 0.03
SAIEHTTLKSVTIASEI [RPO21] | 2.54 ± 0.085 | 2.39 ± 0.077 | 2.57 ± 0.078 | 2.16 ± 0.045
GAGSIFTSHTRLRQGAA [RPL2A] | 3.05 ± 0.1 | 3.2 ± 0.088 | 3.17 ± 0.049 | 3.25 ± 0.072
KAELIKPIQNGEIIDIS [ARP9] | 3.31 ± 0.087 | 3.02 ± 0.1 | 3.33 ± 0.067 | 2.92 ± 0.092
VSLIKKYKLISRIVEIF [YML103C/NUP188] | 1.34 ± 0.054 | 1.94 ± 0.049 | 1.64 ± 0.067 | 1.46 ± 0.054
FLKLANGGKFSKSNLIH [RGR1] | 2.65 ± 0.049 | 2.55 ± 0.061 | 2.87 ± 0.077 | 2.79 ± 0.059
EDFQKRQQKLLEDQQRQ [SWI1] | 3.21 ± 0.11 | 3.16 ± 0.051 | 3.14 ± 0.057 | 3.19 ± 0.047
LEIALFKYRKARLEPGT [RPO31] | 3.24 ± 0.17 | 1.69 ± 0.13 | 2.37 ± 0.12 | 2.85 ± 0.09
VDPRIINSENDYSRKQL [NUT1] | 3.06 ± 0.072 | 3.38 ± 0.072 | 2.78 ± 0.082 | 3.06 ± 0.056
EWYLSHLCSGILSSVNR [SRB8] | 1.41 ± 0.076 | 1.55 ± 0.079 | 1.25 ± 0.095 | 1.63 ± 0.044
NELLLPSELNQLKMVNE [RPC82] | 3.14 ± 0.12 | 2.94 ± 0.13 | 3.25 ± 0.13 | 
LCSMLQEASQVTFIFGE [MED11] | 2.06 ± 0.053 | 2.74 ± 0.048 | 2.61 ± 0.055 | 2.56 ± 0.037

Sequence | protein stability index (doa10∆) | protein stability index (pdr5∆) | protein stability index (san1∆) | protein stability index (ubr1∆)
NVGDNNSTASSSNISPE [ARP7] | 2.83 ± 0.089 | 3.11 ± 0.062 | 3.04 ± 0.055 | 3.08 ± 0.045
LTKAQKYLDQVLDHQRA [RPL17B] | 3 ± 0.096 | 2.96 ± 0.092 | 3.03 ± 0.079 | 2.98 ± 0.042
KQLVEKAELRLAIADSP [ECM29] |  | 3.38 ± 0.29 |  | 3.29 ± 0.16
NYDIITASSLAHDYNND [YML103C/NUP188] | 2.64 ± 0.063 | 2.05 ± 0.075 | 2.61 ± 0.087 | 2.33 ± 0.056
LTSTKVKQLENVSSNIV [RPS20] | 1.75 ± 0.075 | 2.16 ± 0.12 | 2.65 ± 0.11 | 3.19 ± 0.075
VLKADRSWNEPSKSQTN [YML103C/NUP188] | 2.93 ± 0.11 | 3.16 ± 0.1 | 2.89 ± 0.097 | 3.27 ± 0.083
LHVVITLLREVVFTRLV [CSN12] | 1.26 ± 0.052 | 1.26 ± 0.047 | 1.14 ± 0.14 | 1.37 ± 0.083
IELLSDLINILEKKGFS [LIN1] | 1.22 ± 0.075 | 1.43 ± 0.082 | 1.28 ± 0.17 | 1.35 ± 0.062
AEQLKISLSVHTLALEF [RRP46] | 2.1 ± 0.058 | 2.29 ± 0.044 | 2.37 ± 0.063 | 2.25 ± 0.048
KLALGIALEGYRLDIIE [RPN2] | 2.51 ± 0.15 | 1.77 ± 0.11 |  | 2.19 ± 0.083
ELTAQGYDPALLNILSG [RPN2] | 2.76 ± 0.091 | 3.06 ± 0.12 | 2.58 ± 0.071 | 2.89 ± 0.079
FMDVITLDATNENFRLV [RPS4A] |  | 3.44 ± 0.28 | 2.72 ± 0.25 | 3 ± 0.18
YLEDIIGTANYKPLIEE [SMC4] | 2.95 ± 0.1 | 3.28 ± 0.11 | 3.17 ± 0.077 | 3.23 ± 0.076
KTWEKVTLDFGNIFADL [SMC2] | 2.81 ± 0.099 | 2.92 ± 0.12 | 3.39 ± 0.1 | 3.12 ± 0.13
NTTKTADTKAPTFTFGS [YLR335W/NUP2] | 3.36 ± 0.08 | 3.33 ± 0.063 | 3.21 ± 0.061 | 3.38 ± 0.057
MTVNDQPIEKNGDKMPL [YJR042W/NUP85] | 2.73 ± 0.066 | 3.04 ± 0.068 | 2.45 ± 0.086 | 3.1 ± 0.042
GFPSAPQPLFMEDPPST [YMR153W/NUP53] | 2.66 ± 0.06 | 3.08 ± 0.056 | 2.98 ± 0.053 | 2.8 ± 0.052
RRKTTKQNSSSDINQND [YDL088C/ASM4] | 3.16 ± 0.096 | 3.15 ± 0.098 | 2.96 ± 0.083 | 2.95 ± 0.059
NDAMAGGFTAYGGADYG [RPO21] | 1.78 ± 0.083 | 1.91 ± 0.066 | 1.92 ± 0.1 | 1.86 ± 0.074
TEKDDNKTNNEDLFDDY [NUT1] | 2.92 ± 0.055 | 3.25 ± 0.053 | 3.01 ± 0.052 | 3.08 ± 0.049
ELDEHTTQIDLFRIFSM [BRR2] | 2.25 ± 0.1 | 1.56 ± 0.1 | 1.61 ± 0.15 | 1.22 ± 0.059
KRAASVARHIYMRKQVG [RPS19A] | 1.7 ± 0.2 |  | 1.88 ± 0.28 | 
LIAEESEDDSESGKVFI [RPB2] | 3.03 ± 0.23 | 3.63 ± 0.29 | 3.48 ± 0.29 | 
VVYHPSNNELVRTNTLT [RPS8A] | 2.647 ± 0.019 | 2.396 ± 0.018 | 2.455 ± 0.019 | 2.647 ± 0.014
DNKIDIYQIHIPYAAKL [RPB2] | 3.16 ± 0.082 | 2.5 ± 0.11 | 3.15 ± 0.092 | 2.92 ± 0.063
KIQFHIHFADVAHITTK [RGR1] | 2.88 ± 0.092 | 2.95 ± 0.087 | 2.83 ± 0.07 | 2.83 ± 0.058
